Experimental data from PMC6468243, “Mechanistic characterization of the DEAD-box RNA helicase Ded1 from yeast as revealed by a novel technique using single-molecule magnetic tweezers”.

Target: Ded1-His6 (Saccharomyces cerevisiae? (paper says …, UniProt P06634 1-604))
Test: competition (magnetic tweezers displacement assay); 1 mM ATP; 10 nM Ded1; against 200 nM 5'ss-11 bp RNA; effective competitor; Magnetic tweezers, Fhold 7 pN, 10 nM Ded1, 1 mM ATP, 200 nM 5'ss-11 bp RNA; buffer, salt, pH and temperature not in the material. Table 1 and Figures 4-6 (duplex displacement/unwinding kinetics) left out as enzyme activity without a direct binding read-out
Details: protein: recombinant; tags: His6 (pET22b); single strand

Chain of Ded1-His6 (Saccharomyces cerevisiae? (P06634 whole entry): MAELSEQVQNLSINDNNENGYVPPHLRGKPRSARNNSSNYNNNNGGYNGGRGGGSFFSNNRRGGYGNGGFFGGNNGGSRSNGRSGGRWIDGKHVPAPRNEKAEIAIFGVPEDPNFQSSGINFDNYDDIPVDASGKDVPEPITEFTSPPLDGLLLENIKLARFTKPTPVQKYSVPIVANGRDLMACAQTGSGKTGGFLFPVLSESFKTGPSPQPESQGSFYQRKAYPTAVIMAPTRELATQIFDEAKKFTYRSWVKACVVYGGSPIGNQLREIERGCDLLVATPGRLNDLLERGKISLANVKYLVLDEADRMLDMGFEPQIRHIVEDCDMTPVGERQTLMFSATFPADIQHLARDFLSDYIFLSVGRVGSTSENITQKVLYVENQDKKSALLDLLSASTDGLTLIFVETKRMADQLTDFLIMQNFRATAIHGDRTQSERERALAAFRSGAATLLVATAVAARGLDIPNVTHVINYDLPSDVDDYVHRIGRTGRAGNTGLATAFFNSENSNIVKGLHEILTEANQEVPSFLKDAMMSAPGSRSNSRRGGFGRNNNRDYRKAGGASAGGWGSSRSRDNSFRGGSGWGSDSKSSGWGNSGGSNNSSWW

UCAUACUUUUCUUUUCUUUUCCAUC (ssRNA) [ssRNA01 (RNA01)]: binds.
